The results in this text go back to patent publication US6969760B2, “Jak kinases and regulation of cytokine signal transduction” (St. Jude Children's Research Hospital, priority 1993, dated 2005).

For assay [1], the system named is Jak3 and Jak1. The experiment in a line: IL-2/IL-4-induced tyrosine phosphorylation of Jaks in CTLL cells. Format: cell-based, murine.
Procedure: IL-2 and IL-4 stimulation of Jak1 and Jak3 tyrosine phosphorylation and activation of Jak3 in vitro kinase activity. FIG. 9A: CTLL cells were deprived of growth factors for 14 hr and were either left unstimulated (lanes 1, 4, 7 and 10), were stimulated with 100 U/ml with IL-2 (Cetus) for 10 min (lanes 2,5,8 and 11) or were stimulated with 100 ng/ml of IL-4 (R&D) for 10 min (lanes 3, 6, 9 and 12). Extracts were prepared as previously described (Witthuhn et al., Cell: 227-236 (1993)) and used for immunoprecipitation with the indicated antisera. The immunoprecipitates were resolved by SDS-PAGE, electrophoretically transferred to nitrocellulose and the membranes were probed with the 4G10 monoclonal antibody (UBI) against phosphotyrosine. FIG. 9B: CTLL cells were deprived of growth factors for 14 hr and were either unstimulated (lane 1), stimulated with IL-2 (lane 2) or stimulated with IL-4 (lane 3) as above. Extracts were prepared and used for immunoprecipitation with the Jak3/Jak1 cross-reactive antipeptide antiserum against Tyk2. The immunoprecipitates were used in in vitro kinase assays as previously described (Witthuhn et al., Cell: 227-236 (1993)) and the products resolved by SDS-PAGE and visualized by autoradiography. […]
Assay [2] relates to wild-type 2C4 and γ-1/Jak2 transfectants. The experiment in a line: IFN-γ response (cell surface markers, IFN-inducible mRNAs) of wild-type 2C4 and γ-1/Jak2 transfectants. Format: cell-based, human. As for the experimental part: Cell surface expression of transfected CD2 and endogenous Class I and II HLAs in response to IFNs-α or -γ on wild-type 2C4, mutant γ-1 cells and mutant γ-1 cells stably transfected with a murine Jak2 cDNA expression construct. Data was generated for an enriched population and a clone of γ-1/Jak2 transfectants using FACSCAN (BECTON DICKINSON) analyses (3000 data points, Consort 30). Cells were plated at 5×10^5/10 cm dish and treated the following day with 10^3 IU/ml of a highly purified mixture of α-IFNs (WELLFERON 1.5×10^8 IU/mg protein, kindly supplied by WELLCOME […]. LABORATORIES, Beckenham, UK) or recombinant human IFN-γ (4×10^7 IU/mg protein, obtained from Dr. Gunter Adolf, Ernst Boehringer Institut fur Arzneimittelforschung, Vienna, Austria, and commercially or readily available). […]
IFN-inducible gene expression in wild type 2C4, mutant γ-1 and mutant γ-1/Jak2 transfected cells: mRNA expression in response to IFNs-α or -γ was monitored by RNase protection using probes to detect the IFN-inducible mRNAs of: the 9-27, 6-16, 2-5A synthetase and ISGF3γ genes and the p91 and p84 alternatively spliced products of the p91/84 ISGF3α gene and the IRF1 and GBP genes. […]

Assay [3] relates to EMC virus. The experiment in a line: Antiviral assay versus EMC virus. Format: cell-based. To be noted: per 1 fmole of 125I-IFN-γ. As for the experimental part:
Binding of ^125I-labeled IFN-γ to 2C4 and mutant γ-1 cells: ^125I-IFN-γ (667 Ci/mMole, Amersham International, UK) treatment was of triplicate samples of 10^6 cells for 90 min at 0° C. Non-specific binding was subtracted. It was determined in parallel in the presence of a 200 fold excess of unlabeled IFN-γ and represented approximately 40% of the total radioactivity bound. In a parallel antiviral assay versus EMC virus 1 fmole of ^125I-IFN-γ was equivalent to 0.15 IU. Specific binding at the highest IFN-γ concentration here corresponded to about 6000 receptors per cell.

B1: IL-4: IL-4 (R&D), cytokine (protein, UniProt P05112 25-153, looked up)
Interleukin-4: HKCDITLQEIIKTLNSLTEQKTLCTELTVTDIFAASKNTTEKETFCRAATVLRQFYSHHEKDTRCLGATAQQFHRHKQLIRFLKRLDRNLWGLAGLNSCPVKEANQSTLENFLERLKTIMREKYSKCSS
Take B1: the “onset of phosphorylation of the Jaks following stimulation” value in assay [1] is “detectable within one minute”.

B2: IFN-γ: recombinant human IFN-γ (4×10^7 IU/mg protein) (protein)
chain: QDPYVKEAENLKKYFNAGHSDVADNGTLFLGILKNWKEESDRKIMQSQIVSFYFKLFKNFKDDQSIQKSVETIKEDMNVKFFNSNKKKRDDFEKLTNYSVTDLNVQRKAIHELIQVMAELSPAAKTGKRKRSQMLFRGRRASQ
Turning to B2, the “IFN-γ concentration giving an approaching maximal response” value in assay [2] is 100 IU/ml. For the same molecule, the “IFN-γ concentration giving a clear response” value in assay [2] (dose response curves essentially identical) is given as 10 IU/ml.

B3: ^125I-IFN-γ: 125I-labeled IFN-γ (667 Ci/mMole, Amersham) (protein)
chain: QDPYVKEAENLKKYFNAGHSDVADNGTLFLGILKNWKEESDRKIMQSQIVSFYFKLFKNFKDDQSIQKSVETIKEDMNVKFFNSNKKKRDDFEKLTNYSVTDLNVQRKAIHELIQVMAELSPAAKTGKRKRSQMLFRGRRASQ
Turning to B3, in assay [3], the “antiviral activity equivalent of 1 fmole” value is on record as 0.15 IU.
